Laboratory results as given in article doi:10.1101/2023.04.20.537738 (bioRxiv, 2023).

Target: SARS-CoV-2 (WA-1) Spike receptor binding domain (RBD)-mouse Fc fusion protein (SARS-CoV-2, UniProt P0DTC2)
Assay: flow cytometry on cells

B1: FG-10A3 (Family G clone 10A3) human anti-SARS-CoV-2 Spike RBD neutralizing monoclonal antibody (antibody, V domains shown)
VH: QVQLVESGGGVVQPGRSLRLSCAASGFTFSSYGMNWVRQAPGKGLEWVAIIWYDGNNTYYVDSVKGRFTISRDNSKNTLYLQMNSLRAEDTAVYYCARKDGSKTYYGYYFDYWGQGTLVTVSS
VL: DIQMTQSPSSLSASVGDRVTITCRASQSIHSFLNWYQQKPGKPPNLLIYAASSLQSGLPSRFSGSGSGTDFTLTISSLQPEDFATYYCQQSYITPPTFGHGTKVEIK
B1: binds.
